Experimental data taken from paper PMC3439924 (Nucleic Acids Research, 2012).
Read-outs that look alike come from different tables or passages of the source.

Experiments:
RNase T [1] = molecular target: T1, RNase T (Escherichia coli, UniProt P30014 1-215); assay: X-ray crystallography
T1 sequence: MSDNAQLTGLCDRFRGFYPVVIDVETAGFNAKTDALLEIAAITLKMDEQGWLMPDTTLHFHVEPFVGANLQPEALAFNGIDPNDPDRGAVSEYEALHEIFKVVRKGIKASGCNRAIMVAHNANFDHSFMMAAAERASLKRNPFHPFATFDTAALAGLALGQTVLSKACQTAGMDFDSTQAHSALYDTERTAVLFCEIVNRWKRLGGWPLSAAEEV

RNase T [2] = molecular target: T1, RNase T; assay: X-ray crystallography; remark: listed apart in the source
RNase T E92G [3] = molecular target: T2, RNase T E92G (Escherichia coli, UniProt P30014 1-215, E92G); assay: X-ray crystallography
T2 sequence: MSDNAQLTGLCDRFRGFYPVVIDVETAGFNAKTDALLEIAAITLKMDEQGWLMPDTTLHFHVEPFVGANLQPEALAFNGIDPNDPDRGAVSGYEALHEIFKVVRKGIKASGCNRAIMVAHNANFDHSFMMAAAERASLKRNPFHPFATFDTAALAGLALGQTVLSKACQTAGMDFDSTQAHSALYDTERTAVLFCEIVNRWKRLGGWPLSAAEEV

RNase T E92G [4] = molecular target: T2, RNase T E92G; assay: X-ray crystallography; remark: listed apart in the source
crystal structure = molecular target: the molecule itself; assay: crystal structure

TTATAAA (ssDNA) [ssDNA 3'-end AAA]
binding result (RNase T [1]): binds

TTACAAC (ssDNA) [ssDNA 3'-end AAC]
binding result (RNase T [2]): binds

GGCCCTCTTTAGGGCCTT (structured_DNA) [stem-loop DNA, 2-nt 3'-overhang]
binding result (RNase T E92G [3]): binds

GCTTA (ssDNA) [ssDNA 3'-end TTA]
binding result (RNase T E92G [4]): binds

B1: RNase T E92G mutant (E. coli) (enzyme, UniProt P30014 1-215, looked up)
chain: MSDNAQLTGLCDRFRGFYPVVIDVETAGFNAKTDALLEIAAITLKMDEQGWLMPDTTLHFHVEPFVGANLQPEALAFNGIDPNDPDRGAVSGYEALHEIFKVVRKGIKASGCNRAIMVAHNANFDHSFMMAAAERASLKRNPFHPFATFDTAALAGLALGQTVLSKACQTAGMDFDSTQAHSALYDTERTAVLFCEIVNRWKRLGGWPLSAAEEV
binding result (crystal structure): binds

B2: RNase T (wild-type, E. coli) (enzyme, UniProt P30014 1-215, looked up)
chain: MSDNAQLTGLCDRFRGFYPVVIDVETAGFNAKTDALLEIAAITLKMDEQGWLMPDTTLHFHVEPFVGANLQPEALAFNGIDPNDPDRGAVSEYEALHEIFKVVRKGIKASGCNRAIMVAHNANFDHSFMMAAAERASLKRNPFHPFATFDTAALAGLALGQTVLSKACQTAGMDFDSTQAHSALYDTERTAVLFCEIVNRWKRLGGWPLSAAEEV
binding result (crystal structure): binds

TTACACC (ssDNA) [ssDNA 3'-end ACC]
binding result (RNase T [2]): binds

TTACAAT (ssDNA) [ssDNA 3'-end AAT]
binding result (RNase T E92G [4]): binds
